Data reported in article PMC3620356.

Columns and labels:
[1] = target: mature NIH45-46 IgG (human); assay: BLI
[2] = target: 426c Env trimeric gp140 (wild type) (HIV-1 clade C, isolate 426c (HVTN503 participant)) (UniProt M4Q8P8); assay: BLI

Kd [2] [nM]	Substance	Kd [1] [nM]
–	426c Env trimeric gp140 lacking the NLGS at position 276 (N276D) (natural protein)	3.66
10.6	mature NIH45-46 IgG (antibody)	–
